Assay: yeast display, Sf9 membrane polyspecificity reagent, FACS + sequencing; frameworks hold sequencing errors
In short: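 Polyreactivity labels are assigned by the sorting gate from which each nanobody was recovered. The gates were low and high (top ~1%), set on anti-HA fluorescence for expression and streptavidin fluorescence for reagent binding. Before sorting, galactose-induced (36–48 hours) yeast display cells were stained for 1 hour at 4 °C with 10% biotinylated, detergent-solubilized Sf9 membrane reagent.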

Sequence | polyreactivity (PSR sort gate)
QVQLVESGGGLVQAGGSLRLSCAASGITFHDNAMGWYRQAPGKERELVAGSTSGGSTFYADSVKGRFTISRDNAKNTVYLQMNSLKPEDTAVYYCAARRSKYRRGGGYYWGQGTQVTVSS | high polyreactivity
QVQLVESGGGLVQAGGSLRLSCAASGITFHKYAMGWYRQAPGKESELVAAISSGGGTYYADSVKGRFTISRDNAKNTVYLQMNSLKPEDTAVYYCNADIEWLWVRYDYWGQGTQVTVSS | high polyreactivity
QVQLVESGGGLVQAGGSLRLSCAASGITFIIYVMGWYRQAPGKERELVAAISSTGSTYYADSVKGRFTISRDNAKNTVYLQMNSLKPEDTAVYYCAARGRRSSNGFYYWGQGTQVTVSS | high polyreactivity
QVQLVESGGGLVQAGGSLRLSCAASGITFIKNAMGWYRQAPGKERELVAAISRSGGRTYYADSVKGRFTISRDNAKNTVYLQMNSLKPEDTAVYYCAAVTQRSYFYDYWGQGTQVTVSS | high polyreactivity
QVQLVESGGGLVQAGGSLRLSCAASGITFILYAMGWYRQAPGKERELVASITSGGSTDYADSVKGRFTISRDNAKTTVYLQMNSLKPEDTAVYYCAADGRTYHHHDGGWYRYDYWGQGTQVTVSS | low polyreactivity
QVQLVESGGGLVQAGGSLRLSCAASGITFISYAMGWYRQAPGKERELVAVISKSGGRTYYADSVKGRFTISRDNAKNTVYLQMNSLKPEDTAVYYCAATKRYASGMYYWGQGTQVTVSS | high polyreactivity
QVQLVESGGGLVQAGGSLRLSCAASGITFIVKTMGWYRQAPGKEREFVATISANSDGTYYADSVKGRFTISRDNAKNTVYLQMNSLKPEDTAVYYWGQGTQVTVSS | low polyreactivity
QVQLVESGGGLVQAGGSLRLSCAASGITFIWYAMGWYRQAPGKERELVAAISTSGGSTYYADSVKGRFTISRDNAKNTVYLQMNSLKPEDTAVYYCAAVSGGVSRSYDRYYWGQGTQVTVSS | high polyreactivity
QVQLVESGGGLVQAGGSLRLSCAASGITFIYYAMGWYSQAPGKDRELVAAISRSGGSTYYADSVKGRFTISRDNAKNTVYLQMNSLKPEETAVYYCAADGSKYSGRVTGDYWGQGTQVTVSS | high polyreactivity
QVQLVESGGGLVQAGGSLRLSCAASGITFKAYAMGWYRQAPGKERELVAAINTSGARTYYADSVKGRFTISRDNAKNTVYLQMNSLKPEDTAVYYCNARLHQQEGDYWGQGTQVTVSS | low polyreactivity
QVQLVESGGGLVQAGGSLRLSCAASGITFKDYAMGWYRQATGKERELVAVISYSGGSTYYADSVKGRFTISRDNAKNTVYLEMNSLKPEDTAVYYCAARVGPEYDWGQGTQVTVSS | low polyreactivity
QVQLVESGGGLVQAGGSLRLSCAASGITFKPYAMGWYRQAPGKERELVATITFRGGSTYYADSVKGRFTISRDNAKNTVYLQMNSLNPEDTAVYYCAAVTRRYVLSTFYYWGQGTQVTVSS | high polyreactivity
QVQLVESGGGLVQAGGSLRLSCAASGITFKPYGMGWSRQAPGKERELVADITSGGITYYADSVKGRFTISRDNAKNTVYLQMNSLKPEDTAVYYCAAPYQQHVYHHYWGQGTQVTVSS | low polyreactivity
QVQLVESGGGLVQAGGSLRLSCAASGITFKPYGMGWYRPAPGKERELVADITSGGITYYADSVKGRFTISRDNAKNTVYLQMNSLKPEDTAVYYCATGDLFVYYWGYVVRLYDYWGQGTQVTVSS | low polyreactivity
QVQLVESGGGLVQAGGSLRLSCAASGITFKRYAMGWYRQAPGKERELVAAITISAGSTYYADSVKGRFTISRDNAKNTVYLQMNSLKPEDTAVYYCAAESYGSWYYYWGQGTQVTVSS | high polyreactivity
QVQLVESGGGLVQAGGSLRLSCAASGITFKTYAMGWYRQAPGKVRELVATITRGSRTNYADSVKGRFTISRDNAKNTVYLQMNSLKREHTAVYYCAAHYTTFIRSPDGDYLGQGTQVTVSS | low polyreactivity

Sequence | polyreactivity (PSR sort gate)
QVQLVESGGGLVQAGGSLRLSCAASGITFKWNALGWYRQAPGKERELVAVISSDGRTYYADSVKWRFTISRDKAKNTVYLQMNSLKPEDTAVYYCNADRSVIHRGYIWQPGRNDYWGQGTQVTVSS | low polyreactivity
QVQLVESGGGLVQAGGSLRLSCAASGITFKWNDMGWYRQAPGKEREFVAAITGSTGSTFYADSVKGRFTISRDNAKNTVYLQMISLKPEDTAVYYCAAGPWFYYWGQGTQVTVSS | low polyreactivity
QVQLVESGGGLVQAGGSLRLSCAASGITFKYTAMGWYRQAPGKERELVAAISRRGGRTYYADSVKGRFTISRDNAKNTVYLQMNSLKPEDTAVYYCNVETWSVGGREYDYWGQGTQVTVSS | high polyreactivity
QVQLVESGGGLVQAGGSLRLSCAASGITFKYYAMGWYRQAPGKERELVADISWGGGSTYYADSVKGRFTISRDNAKNTVYLQMNSLKPEDTAVYYCAAEYSGSYYSFWMVYWGLGTQVTVSS | low polyreactivity
QVQLVESGGGLVQAGGSLRLSCAASGITFLANAMGWYRQAPGKERELVATITSRGASTYYADSVKGRFTISRDNAKNTVYLQMNSLKPEDSAVYYCAATVRRRYERYNYWGQGTQVTVSS | high polyreactivity
QVQLVESGGGLVQAGGSLRLSCAASGITFLDYTMGWYRQAPGKERELVATISKSGGSTYYADSVKGRFTISRDNAKNTVYLQMNSLKPEDTAVYYFAARGFSFWRYYYWGQGTQVTVSS | high polyreactivity
QVQLVESGGGLVQAGGSLRLSCAASGITFLPYAMGWYRPEPGKERELVAAITRGGGSTYADSVKGRFTISRDNAKNTVYLQMNSLKPEDTAVYYCNAKGRGWTAQYDYWGQGTQVTVSS | low polyreactivity
QVQLVESGGGLVQAGGSLRLSCAASGITFLPYTMGWYRQAPGKERELVATISWNGGSTYYADSVKGRFTISRDNAKNTVYLQMNSLKPEDTAVYYCATGKWGYFRYNYWGQGTQVTVSS | high polyreactivity
QVQLVESGGGLVQAGGSLRLSCAASGITFLTYAMGWYRQSPGKDRELVASITYSGGTTYYADSVKGRFTISRDNAKNTVYLQMNSLQPEDTAVYYCNTDWRTSVGYDYWGQGTQVTVSS | low polyreactivity
QVQLVESGGGLVQAGGSLRLSCAASGITFLTYTMGWYRQAPGKERELVAAISRSGGRTYYADSVKGRFTISRDNAKNTVYFQMNSLKPEDTAVYYCAAVSANQDFDYWGQGTQVTVSS | high polyreactivity
QVQLVESGGGLVQAGGSLRLSCAASGITFLYYTRGWYRPAPGKERELVASISRSGNTYYADSVKGRFTISRDNAKNTVYLQMNSLKPEDTAVYYCAAKRKSYYSYNFDYWGQGTQVTVSS | high polyreactivity
QVQLVESGGGLVQAGGSLRLSCAASGITFNAYAMGLYRQAPGKERELVAAISRSGGSTYYADSVKGRFTISRDNANNTVYLQMNSLKPEDTAVYYCAVDYRTRGDYWGQGTQVTVSS | high polyreactivity
QVQLVESGGGLVQAGGSLRLSCAASGITFNDNAMGWYRQAPGKERELVAAINSGTGTYYADSVKGRFTISRDNAKNTVYLQMNSLKPEDTAVYYCAADSRPYLRDYWGQGTQVTVSS | low polyreactivity
QVQLVESGGGLVQAGGSLRLSCAASGITFNEYAMGWYIQAPGKERELVAAISRRGGSTYYADSVKGRFTISRDNAKNTVYLQMNSLKPEDTAVYYCAAYYPSHEYSGFWSDTYEYWGQGTQVTVSS | low polyreactivity
QVQLVESGGGLVQAGGSLRLSCAASGITFNRYAMGWYRQAPGKERELVATISYRGGSTSYADSVKGRFTISRDNAKNTVYLQMNSLKPEDTAVYYCATDEGYVLFKYYSWGQGTQVTVSS | low polyreactivity
QVQLVESGGGLVQAGGSLRLSCAASGITFNSYAMGWYRQAPGKERELVAAISGSGSSTYYADSVKGRFTISRDNAKNTVYLQMNSLKPEDTAVYYCAATVYSSWTYYTHEYWGQGTQVTVSS | low polyreactivity

From the nanobody polyreactivity screen of Harvey et al. (2022)
